Laboratory results from PMC9482650, “Quantitative fragmentomics allow affinity mapping of interactomes” (Nature Communications, 2022).

Each binder was assayed against SCRIB_1, Q14160 (assay: holdup assay). Conditions: plain residues with an end cap or a label only (N-terminal biotin on a linker: ado-ado).
SCRIB_1, Q14160, sequence (Q14160 718-814): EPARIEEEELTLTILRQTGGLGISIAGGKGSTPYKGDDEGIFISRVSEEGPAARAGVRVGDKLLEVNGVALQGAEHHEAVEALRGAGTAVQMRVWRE
Parameters: key: below the threshold = too weak to quantify, mostly under pKd 3.1 to 4
SNAGNTATKA [NOSTRIN, Q8IVI9] was tested, and the pKd was “below the threshold”.
For LKVPPEERLI [CRB2, Q5IJ48], the pKd was “below the threshold”.

What follows are binders tested against T1, SYNJ2BP, P57105 (assay: holdup assay). Conditions: plain residues with an end cap or a label only (N-terminal biotin on a linker: ado-ado).
T1 sequence (P57105 8-110, limits assumed, looked up): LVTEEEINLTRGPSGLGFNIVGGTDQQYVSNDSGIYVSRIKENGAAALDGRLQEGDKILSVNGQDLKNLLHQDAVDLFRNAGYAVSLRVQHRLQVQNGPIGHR
Parameters: key: below the threshold = too weak to quantify, mostly under pKd 3.1 to 4
In the case of SNAGNTATKA [NOSTRIN, Q8IVI9], the pKd is reported as “below the threshold”.
LKVPPEERLI [CRB2, Q5IJ48] was tested, and the pKd was “below the threshold”.

The binders below were run against T2, TJP3_3, O95049 (assay: holdup assay). Conditions: plain residues with an end cap or a label only (N-terminal biotin on a linker: ado-ado).
T2 sequence (O95049 375-456, limits assumed, looked up): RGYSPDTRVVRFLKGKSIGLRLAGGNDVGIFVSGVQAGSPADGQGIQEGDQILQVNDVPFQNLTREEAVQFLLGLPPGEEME
Parameters: key: below the threshold = too weak to quantify, mostly under pKd 3.1 to 4
In the case of SNAGNTATKA [NOSTRIN, Q8IVI9], the pKd is reported as “below the threshold”.
In the case of LKVPPEERLI [CRB2, Q5IJ48], the pKd is reported as “below the threshold”.

The binders below were run against T3, GRIP1_2, Q9Y3R0 (assay: holdup assay). Conditions: plain residues with an end cap or a label only (N-terminal biotin on a linker: ado-ado).
T3 sequence (Q9Y3R0 145-248, limits assumed, looked up): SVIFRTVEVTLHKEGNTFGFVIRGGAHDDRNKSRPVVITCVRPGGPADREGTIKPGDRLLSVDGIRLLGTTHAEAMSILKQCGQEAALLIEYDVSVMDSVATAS
Parameters: key: below the threshold = too weak to quantify, mostly under pKd 3.1 to 4
For SNAGNTATKA [NOSTRIN, Q8IVI9], the pKd was “below the threshold”.
With LKVPPEERLI [CRB2, Q5IJ48] the pKd was “below the threshold”.

Each binder was assayed against GRIP2_3, Q9C0E4 (assay: holdup assay). Conditions: plain residues with an end cap or a label only (N-terminal biotin on a linker: ado-ado).
GRIP2_3, Q9C0E4, sequence (Q9C0E4 238-339): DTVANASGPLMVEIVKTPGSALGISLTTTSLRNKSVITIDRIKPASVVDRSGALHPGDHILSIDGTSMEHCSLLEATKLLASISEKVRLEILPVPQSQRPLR
Parameters: key: below the threshold = too weak to quantify, mostly under pKd 3.1 to 4
SNAGNTATKA [NOSTRIN, Q8IVI9] was tested, and the pKd was “below the threshold”.
LKVPPEERLI [CRB2, Q5IJ48] was tested, and the pKd was “below the threshold”.

Each binder was assayed against T4, APBA1_2, Q02410 (assay: holdup assay). Conditions: plain residues with an end cap or a label only (N-terminal biotin on a linker: ado-ado).
T4 sequence (Q02410 742-832, limits assumed, looked up): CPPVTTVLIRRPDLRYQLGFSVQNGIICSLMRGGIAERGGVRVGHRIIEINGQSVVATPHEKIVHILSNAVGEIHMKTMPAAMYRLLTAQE
Parameters: key: below the threshold = too weak to quantify, mostly under pKd 3.1 to 4
With SNAGNTATKA [NOSTRIN, Q8IVI9] the pKd was “below the threshold”.
In the case of LKVPPEERLI [CRB2, Q5IJ48], the pKd is reported as “below the threshold”.

Each binder was assayed against T5, DFNB31_3, Q9P202 (assay: holdup assay). Conditions: plain residues with an end cap or a label only (N-terminal biotin on a linker: ado-ado).
T5 sequence (Q9P202 811-907, limits assumed, looked up): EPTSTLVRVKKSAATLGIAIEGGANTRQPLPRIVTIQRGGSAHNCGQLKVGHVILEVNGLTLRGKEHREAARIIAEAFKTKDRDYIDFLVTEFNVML
Parameters: key: below the threshold = too weak to quantify, mostly under pKd 3.1 to 4
SNAGNTATKA [NOSTRIN, Q8IVI9] was tested, and the pKd was “below the threshold”.
In the case of LKVPPEERLI [CRB2, Q5IJ48], the pKd is reported as “below the threshold”.

What follows are binders tested against T6, GRIP1_3, Q9Y3R0 (assay: holdup assay). Conditions: plain residues with an end cap or a label only (N-terminal biotin on a linker: ado-ado).
T6 sequence (Q9Y3R0 247-346, limits assumed, looked up): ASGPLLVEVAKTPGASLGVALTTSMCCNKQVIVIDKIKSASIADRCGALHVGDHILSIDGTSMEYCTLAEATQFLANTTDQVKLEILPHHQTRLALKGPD
Parameters: key: below the threshold = too weak to quantify, mostly under pKd 3.1 to 4
SNAGNTATKA [NOSTRIN, Q8IVI9] was tested, and the pKd was “below the threshold”.
For LKVPPEERLI [CRB2, Q5IJ48], the pKd was “below the threshold”.

Each binder was assayed against FRMPD3, Q5JV73 (assay: holdup assay). Conditions: plain residues with an end cap or a label only (N-terminal biotin on a linker: ado-ado).
FRMPD3, Q5JV73, sequence (Q5JV73 12-100): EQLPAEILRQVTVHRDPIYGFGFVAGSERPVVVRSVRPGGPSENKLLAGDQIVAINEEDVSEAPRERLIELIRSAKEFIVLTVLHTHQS
Parameters: key: below the threshold = too weak to quantify, mostly under pKd 3.1 to 4
With SNAGNTATKA [NOSTRIN, Q8IVI9] the pKd was “below the threshold”.
LKVPPEERLI [CRB2, Q5IJ48] was tested, and the pKd was “below the threshold”.

The binders below were run against T7, MPP7, Q5T2T1 (assay: holdup assay). Conditions: plain residues with an end cap or a label only (N-terminal biotin on a linker: ado-ado).
T7 sequence (Q5T2T1 134-230, limits assumed, looked up): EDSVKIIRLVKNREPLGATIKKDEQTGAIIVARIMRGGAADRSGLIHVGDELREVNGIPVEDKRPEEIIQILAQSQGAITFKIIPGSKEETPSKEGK
Parameters: key: below the threshold = too weak to quantify, mostly under pKd 3.1 to 4
SNAGNTATKA [NOSTRIN, Q8IVI9] was tested, and the pKd was “below the threshold”.
In the case of LKVPPEERLI [CRB2, Q5IJ48], the pKd is reported as “below the threshold”.

These binders were tested against SCRIB_2, Q14160 (assay: holdup assay). Conditions: plain residues with an end cap or a label only (N-terminal biotin on a linker: ado-ado).
SCRIB_2, Q14160, sequence (Q14160 857-960): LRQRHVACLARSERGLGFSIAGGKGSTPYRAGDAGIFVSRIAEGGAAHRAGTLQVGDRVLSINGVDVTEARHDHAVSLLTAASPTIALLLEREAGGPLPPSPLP
Parameters: key: below the threshold = too weak to quantify, mostly under pKd 3.1 to 4
With SNAGNTATKA [NOSTRIN, Q8IVI9] the pKd was “below the threshold”.
In the case of LKVPPEERLI [CRB2, Q5IJ48], the pKd is reported as “below the threshold”.

These binders were tested against T8, CARD11, Q9BXL7 (assay: holdup assay). Conditions: plain residues with an end cap or a label only (N-terminal biotin on a linker: ado-ado).
T8 sequence (Q9BXL7 662-765, limits assumed, looked up): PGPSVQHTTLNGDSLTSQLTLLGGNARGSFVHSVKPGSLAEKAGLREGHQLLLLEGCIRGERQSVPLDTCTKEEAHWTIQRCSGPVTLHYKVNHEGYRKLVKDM
Parameters: key: below the threshold = too weak to quantify, mostly under pKd 3.1 to 4
SNAGNTATKA [NOSTRIN, Q8IVI9] was tested, and the pKd was “below the threshold”.
In the case of LKVPPEERLI [CRB2, Q5IJ48], the pKd is reported as “below the threshold”.

These binders were tested against DLG1_3, Q12959 (assay: holdup assay). Conditions: plain residues with an end cap or a label only (N-terminal biotin on a linker: ado-ado).
DLG1_3, Q12959, sequence (Q12959 457-571): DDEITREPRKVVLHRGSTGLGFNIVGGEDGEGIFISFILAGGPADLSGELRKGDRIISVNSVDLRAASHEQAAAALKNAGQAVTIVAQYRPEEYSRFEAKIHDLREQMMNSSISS
Parameters: key: below the threshold = too weak to quantify, mostly under pKd 3.1 to 4
SNAGNTATKA [NOSTRIN, Q8IVI9] was tested, and the pKd was “below the threshold”.
In the case of LKVPPEERLI [CRB2, Q5IJ48], the pKd is reported as “below the threshold”.

The binders below were run against GORASP2, Q9H8Y8 (assay: holdup assay). Conditions: plain residues with an end cap or a label only (N-terminal biotin on a linker: ado-ado).
Parameters: key: below the threshold = too weak to quantify, mostly under pKd 3.1 to 4
For SNAGNTATKA [NOSTRIN, Q8IVI9], the pKd was “below the threshold”.
For LKVPPEERLI [CRB2, Q5IJ48], the pKd was 3.62.

What follows are binders tested against SNX27, Q96L92 (assay: holdup assay). Conditions: plain residues with an end cap or a label only (N-terminal biotin on a linker: ado-ado).
Parameters: key: below the threshold = too weak to quantify, mostly under pKd 3.1 to 4
In the case of SNAGNTATKA [NOSTRIN, Q8IVI9], the pKd is reported as “below the threshold”.
For LKVPPEERLI [CRB2, Q5IJ48], the pKd was “below the threshold”.

These binders were tested against GRIP2_7, Q9C0E4 (assay: holdup assay). Conditions: plain residues with an end cap or a label only (N-terminal biotin on a linker: ado-ado).
GRIP2_7, Q9C0E4, sequence (Q9C0E4 934-1023): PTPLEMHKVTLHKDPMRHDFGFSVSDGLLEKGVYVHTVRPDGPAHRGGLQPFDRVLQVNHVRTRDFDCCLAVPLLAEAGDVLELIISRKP
Parameters: key: below the threshold = too weak to quantify, mostly under pKd 3.1 to 4
With SNAGNTATKA [NOSTRIN, Q8IVI9] the pKd was “below the threshold”.
For LKVPPEERLI [CRB2, Q5IJ48], the pKd was “below the threshold”.

Each binder was assayed against LAP2, Q96RT1 (assay: holdup assay). Conditions: plain residues with an end cap or a label only (N-terminal biotin on a linker: ado-ado).
LAP2, Q96RT1, sequence (Q96RT1 other isoform, or with tags, fused parts or gaps): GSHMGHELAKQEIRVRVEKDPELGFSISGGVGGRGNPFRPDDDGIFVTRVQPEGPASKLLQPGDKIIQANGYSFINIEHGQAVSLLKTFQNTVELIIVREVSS
Parameters: key: below the threshold = too weak to quantify, mostly under pKd 3.1 to 4
SNAGNTATKA [NOSTRIN, Q8IVI9] was tested, and the pKd was “below the threshold”.
With LKVPPEERLI [CRB2, Q5IJ48] the pKd was “below the threshold”.

These binders were tested against GRID2IP_1, A4D2P6 (assay: holdup assay). Conditions: plain residues with an end cap or a label only (N-terminal biotin on a linker: ado-ado).
GRID2IP_1, A4D2P6, sequence (A4D2P6 1-87): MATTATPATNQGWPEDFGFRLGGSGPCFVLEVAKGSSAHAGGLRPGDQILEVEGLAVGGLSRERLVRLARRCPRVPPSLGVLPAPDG
Parameters: key: below the threshold = too weak to quantify, mostly under pKd 3.1 to 4
SNAGNTATKA [NOSTRIN, Q8IVI9] was tested, and the pKd was “below the threshold”.
With LKVPPEERLI [CRB2, Q5IJ48] the pKd was “below the threshold”.

The binders below were run against HTRA2, O43464 (assay: holdup assay). Conditions: plain residues with an end cap or a label only (N-terminal biotin on a linker: ado-ado).
HTRA2, O43464, sequence (O43464 355-458): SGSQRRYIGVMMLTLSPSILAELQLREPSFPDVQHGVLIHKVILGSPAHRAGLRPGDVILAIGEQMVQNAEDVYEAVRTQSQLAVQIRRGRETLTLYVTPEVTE
Parameters: key: below the threshold = too weak to quantify, mostly under pKd 3.1 to 4
SNAGNTATKA [NOSTRIN, Q8IVI9] was tested, and the pKd was “below the threshold”.
For LKVPPEERLI [CRB2, Q5IJ48], the pKd was “below the threshold”.

The binders below were run against PDZRN4_1, Q6ZMN7 (assay: holdup assay). Conditions: plain residues with an end cap or a label only (N-terminal biotin on a linker: ado-ado).
PDZRN4_1, Q6ZMN7, sequence (Q6ZMN7 213-318): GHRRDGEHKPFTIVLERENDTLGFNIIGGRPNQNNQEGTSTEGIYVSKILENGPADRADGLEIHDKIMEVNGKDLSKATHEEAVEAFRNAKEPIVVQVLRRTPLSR
Parameters: key: below the threshold = too weak to quantify, mostly under pKd 3.1 to 4
With SNAGNTATKA [NOSTRIN, Q8IVI9] the pKd was “below the threshold”.
With LKVPPEERLI [CRB2, Q5IJ48] the pKd was “below the threshold”.

The binders below were run against MAGI2_4, Q86UL8 (assay: holdup assay). Conditions: plain residues with an end cap or a label only (N-terminal biotin on a linker: ado-ado).
MAGI2_4, Q86UL8, sequence (Q86UL8 772-865): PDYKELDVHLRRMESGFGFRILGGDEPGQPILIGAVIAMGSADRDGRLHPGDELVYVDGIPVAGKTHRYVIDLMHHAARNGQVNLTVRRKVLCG
Parameters: key: below the threshold = too weak to quantify, mostly under pKd 3.1 to 4
With SNAGNTATKA [NOSTRIN, Q8IVI9] the pKd was “below the threshold”.
With LKVPPEERLI [CRB2, Q5IJ48] the pKd was “below the threshold”.

These binders were tested against MAGI2_2, Q86UL8 (assay: holdup assay). Conditions: plain residues with an end cap or a label only (N-terminal biotin on a linker: ado-ado).
MAGI2_2, Q86UL8, sequence (Q86UL8 410-522): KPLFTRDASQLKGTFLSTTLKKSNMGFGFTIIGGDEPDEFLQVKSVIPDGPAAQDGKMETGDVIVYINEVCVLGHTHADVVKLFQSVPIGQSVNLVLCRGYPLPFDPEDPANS
Parameters: key: below the threshold = too weak to quantify, mostly under pKd 3.1 to 4
SNAGNTATKA [NOSTRIN, Q8IVI9] was tested, and the pKd was 3.56.
For LKVPPEERLI [CRB2, Q5IJ48], the pKd was “below the threshold”.

The binders below were run against DLG4_3, P78352 (assay: holdup assay). Conditions: plain residues with an end cap or a label only (N-terminal biotin on a linker: ado-ado).
DLG4_3, P78352, sequence (P78352 306-403): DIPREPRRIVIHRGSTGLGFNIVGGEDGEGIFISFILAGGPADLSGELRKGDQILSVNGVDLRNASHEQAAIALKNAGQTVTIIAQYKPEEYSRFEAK
Parameters: key: below the threshold = too weak to quantify, mostly under pKd 3.1 to 4
Binder SNAGNTATKA [NOSTRIN, Q8IVI9] has a pKd of 3.5.
For LKVPPEERLI [CRB2, Q5IJ48], the pKd was “below the threshold”.

Each binder was assayed against AHNAK1, Q09666 (assay: holdup assay). Conditions: plain residues with an end cap or a label only (N-terminal biotin on a linker: ado-ado).
AHNAK1, Q09666, sequence (Q09666 4-100): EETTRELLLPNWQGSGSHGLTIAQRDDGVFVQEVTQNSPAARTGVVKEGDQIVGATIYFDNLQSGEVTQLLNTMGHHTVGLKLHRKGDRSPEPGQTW
Parameters: key: below the threshold = too weak to quantify, mostly under pKd 3.1 to 4
For SNAGNTATKA [NOSTRIN, Q8IVI9], the pKd was “below the threshold”.
LKVPPEERLI [CRB2, Q5IJ48] was tested, and the pKd was “below the threshold”.

These binders were tested against T9, LIN7C, Q9NUP9 (assay: holdup assay). Conditions: plain residues with an end cap or a label only (N-terminal biotin on a linker: ado-ado).
T9 sequence (Q9NUP9 88-185, limits assumed, looked up): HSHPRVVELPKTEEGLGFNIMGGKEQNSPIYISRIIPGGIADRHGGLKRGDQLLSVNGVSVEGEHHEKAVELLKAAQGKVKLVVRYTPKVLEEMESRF
Parameters: key: below the threshold = too weak to quantify, mostly under pKd 3.1 to 4
With SNAGNTATKA [NOSTRIN, Q8IVI9] the pKd was “below the threshold”.
For LKVPPEERLI [CRB2, Q5IJ48], the pKd was “below the threshold”.

The binders below were run against T10, GRIP1_5, Q9Y3R0 (assay: holdup assay). Conditions: plain residues with an end cap or a label only (N-terminal biotin on a linker: ado-ado).
T10 sequence (Q9Y3R0 568-668, limits assumed, looked up): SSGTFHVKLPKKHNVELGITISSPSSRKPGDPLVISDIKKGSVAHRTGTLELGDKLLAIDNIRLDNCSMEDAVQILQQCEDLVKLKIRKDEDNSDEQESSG
Parameters: key: below the threshold = too weak to quantify, mostly under pKd 3.1 to 4
For SNAGNTATKA [NOSTRIN, Q8IVI9], the pKd was “below the threshold”.
LKVPPEERLI [CRB2, Q5IJ48] was tested, and the pKd was “below the threshold”.

Each binder was assayed against TJP2_1, Q9UDY2 (assay: holdup assay). Conditions: plain residues with an end cap or a label only (N-terminal biotin on a linker: ado-ado).
TJP2_1, Q9UDY2, sequence (Q9UDY2 24-128): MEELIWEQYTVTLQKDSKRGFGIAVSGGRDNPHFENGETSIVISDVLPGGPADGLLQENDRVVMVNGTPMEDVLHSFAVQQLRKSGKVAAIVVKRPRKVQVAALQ
Parameters: key: below the threshold = too weak to quantify, mostly under pKd 3.1 to 4
In the case of SNAGNTATKA [NOSTRIN, Q8IVI9], the pKd is reported as “below the threshold”.
With LKVPPEERLI [CRB2, Q5IJ48] the pKd was “below the threshold”.
